Test results: article PMC12304082

Biological target: MtrC_(DI,II,memb), lipid-anchored truncated MtrC comprised only of domains I and II (Shewanella oneidensis MR-1) (UniProt Q8EG34)

rate of reduction of 700 nM soluble OmcA by whole S. oneidensis ΔmtrC/omcA cells producing MtrC (DI,II)AB, against S. oneidensis MR-1 (fold lower rate): 4
Substance: soluble OmcA (from UniProt Q8EG33 1-735) (natural protein)
